In patent US20080166345A1, “MEDICAMENTS COMPRISING GENE RECOMBINANT ANTIBODY AGAINST GANGLIOSIDE GD3” (KYOWA HAKKO KOGYO CO., LTD., priority 2001, published 2008):

Experiments:
[1] = system: GD3 expressing B16 cell B16•29-10; assay: Antitumor effects of KM871 with human IL-2, mouse syngeneic graft model; type: in vivo, C57 BL/6 mouse; conditions: FIG. 4; KM871 50 μg/day, IL-2 10 μg/day, days 6-14, tail vein
Method: Six days after the tumor inoculation, the tumor diameter was measured using slide calipers to calculate the tumor volume by the following equation, and individuals having the value within the range of 10 to 80 mm^3 were selected.
Tumor volume=(width)^2×length×0.5
They were divided into groups in such a manner that the average tumor volume became uniform, and then the following administration groups of A to D were arranged to carry out continuous administration of the following agents from the tail vein once a day for 8 days (from the 6th day to 14th day).
IL-2 (Human Recombinant IL-2, Manufactured by Peprotech) Alone Group:
The test was carried out using 5 animals for each group. Each agent was prepared to 200 μl per animal by diluting with a citrate buffer (an aqueous solution of 10 mM citric acid and 150 n sodium chloride, adjusted to pH 6 with sodium hydroxide). From the 6th day after the inoculation, the tumor volume was periodically measured, and the antitumor effects were judged by comparing the mean value of specific volume V/V0 in each group.

[2] = Reactivity of purified antibodies with GD3 (ELISA); type: binding; conditions: antibody 10 μg/ml, 20 pmol/well; FIG. 22
Method: Each ganglioside (2 nmol) was dissolved in […] of ethanol solution containing 10 μg of dipalmitoylphosphatidylcholine (manufactured by SIGMA) and 5 μg of cholesterol (manufactured by SIGMA). In each well of a 96 well plate for ELISA (manufactured by Greiner), 20 μl of the solution (becomes 20 pmol/well) or 20 μl of the solution diluted with ethanol was respectively dispensed, followed by air-drying, and then PBS containing 1% BSA (hereinafter referred to as “1% BSA-PBS”) was added in 100 μl/well and allowed to react at room temperature for 1 hour to thereby block remaining active groups. After discarding 1% BSA-PBS, culture supernatants of transformants or diluted solutions of humanized antibodies were added in 50 μl/well and allowed to react at room temperature for 1 hour. […] After the reaction and subsequent washing with Tween-PBS, an ABTS substrate solution (a solution prepared by dissolving 0.55 g of 2,2′-azinobis(3-ethylbenzothiazoline-6-sulfonic acid) in 1 L of 0.1 M citrate buffer (pH 4.2) and adding 1 μl/ml hydrogen peroxide just before the use) was added in 50 μl/well for color development and the absorbance at 415 nm (hereinafter referred to as “OD415”) was measured.
Reactivity of purified anti-GD3 CDR-grafted antibodies KM8869, KM8870 and KM8871 with GD3 (manufactured by DIA-IATRON) was measured by the ELISA shown in the item 2 of Reference Example. […]

[3] = system: human melanoma culture cell line G-361; assay: In vitro cytotoxic activity (ADCC activity), 51Cr release; type: cell-based; conditions: FIG. 25
Method: (§1) Each of human melanoma culture cell lines, G-361 (ATCC CRL 1424) and SK-MEL-28 (ATCC HTB72), was cultured in RPMI1640-FBS(10) medium and adjusted to 1×10^6 cells, and the cells were isotope-labeled by adding 1.85 MBq equivalent of a radioactive substance Na2^51CrO4 and carrying out the reaction at 37° C. for 1 hour. After the reaction, the cells were washed three times by their suspension in RPMI1640-FBS(10) medium and centrifugation, re-suspended in the medium and then incubated in ice at 4° C. for 30 minutes to thereby spontaneously release the radioactive substance. After centrifugation, the cells were adjusted to 2×10^5 cells/ml by adding 5 ml of RPMI1640-FBS(10) medium and used as the target cell suspension.
(§2) Healthy human vein blood (50 ml) was collected, and 0.5 ml of heparin sodium (manufactured by Takeda Pharmaceutical) was gently added thereto. The resulting mixture was centrifuged (1,500 to 1,800×g for 30 minutes) using Polymorphprep (manufactured by Nycomed Pharma AS) in accordance with the manufacturers instructions to separate a mononuclear cell layer. […]
(§3) Into each well of a 96 well U bottom plate (manufactured by Falcon), 50 μl of the target cell suspension prepared in “a.” was dispensed (1×10^4 cells/well). […] After the reaction, the plate was centrifuged and the amount of ^51Cr in the supernatant was measured by a γ-counter. The amount of the spontaneously dissociated ^51Cr was calculated by carrying out the same procedure using the medium alone instead of the effector cell suspension and antibody solution and measuring the amount of ^51Cr in the supernatant. The amount of the total dissociated ^51Cr was calculated by carrying out the same procedure by adding the medium alone instead of the antibody solution, and 5 N sodium hydroxide instead of the effector cell suspension, and measuring the amount of ^51Cr in the supernatant. The ADCC activity was calculated by the following equation.

[4] = system: human melanoma culture cell line SK-MEL-28; assay: as above; type: cell-based; conditions: antibody 0.05 to 50 μg/ml, effector:target 50:1; FIG. 25
Method: as §1, §2, §3

[5] = human peripheral blood monocyte as effector; cited from earlier work
[6] = human serum as complement source; cited from earlier work

B1: KM871: anti-GD3 human chimeric antibody; VH SEQ ID NO:49, VL SEQ ID NO:50, human IgG1 and κ C regions (antibody, listed as Mus musculus, V domains shown)
VH: EVTLVESGGDFVKPGGSLKVSCAASGFAFSHYAMSWVRQTPAKRLEWVAYISSGGSGTYYSDSVKGRFTISRDNAKNTLYLQMRSLRSEDSAMYFCTRVKLGTYYFDSWGQGTTLTVSS
VL: DIQMTQTASSLPASLGDRVTISCSASQDISNYLNWYQQKPDGTVKLLIFYSSNLHSGVPSRFSGGGSGTDYSLTISNLEPEDIATYFCHQYSKLPWTFGGGTKLEIKR
modifications: human IgG1 and kappa constant regions
- tumor growth inhibitory effects (mean V/V0) [1]: antitumor effects were not found
- binding to ganglioside [2]: bound strongly
- difference in ADCC cytotoxic activity among KM871, KM8869, KM8870 and KM8871 ([3]; G-361 and SK-MEL-28): difference in the cytotoxic activity was not found
- ADCC activity ([3]; antibody 0.05 to 50 μg/ml, effector:target 50:1): strong ADCC activity
- ADCC activity [4]: strong ADCC activity
- ADCC activity in comparison with the original mouse-derived antibody [5]: increased
- CDC activity in comparison with the original mouse-derived antibody [6]: increased
